Where a chain is given by its changes, count along the chain named. Like-named read-outs stand apart in the source and are kept apart here. One block for each compound: values may come before it. No end group written: not given here.
How the values were obtained:
[1] = target: T1, Calpain-5 protease core domain (CAPN5-PC) (Homo sapiens, UniProt O15484); assay: CAPN5 functional assay (FRET peptide substrate kinetics)
T1 sequence (O15484 26-343 limits assumed): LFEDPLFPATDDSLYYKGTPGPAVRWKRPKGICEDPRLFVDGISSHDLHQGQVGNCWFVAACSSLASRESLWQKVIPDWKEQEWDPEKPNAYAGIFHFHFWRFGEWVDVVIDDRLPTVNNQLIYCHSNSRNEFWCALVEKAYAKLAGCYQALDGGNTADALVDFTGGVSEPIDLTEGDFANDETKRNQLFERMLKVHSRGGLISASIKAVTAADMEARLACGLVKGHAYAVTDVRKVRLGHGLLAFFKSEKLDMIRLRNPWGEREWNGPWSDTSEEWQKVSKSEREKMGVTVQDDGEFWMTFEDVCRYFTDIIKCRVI
Experimental: The assay was performed using a Greiner 96-well Black Small Volume plate according to the following protocol for measuring enzymatic activity of the calpain-5 protease: • Dilute CAPN5 in activity buffer to make a master mix at 3 concentrations. • Add 50 μL of substrate diluted with activity buffer (7 working concentrations at 2×). • Add 50 μL of CAPN5 to each well with multi-channel pipette. • Measure fluorescence activity (336/490 nm) on Tecan Spark at 37° C. for 2 hours with recordings taken every 2 minutes (with lid). • Convert RFU values to nM product using standard curve of EDANS concentrations (2 nM to 5 μM). • Calculate reaction velocity (slope) at each substrate concentration using linear regression. • Calculate Michaelis-Menten kinetic parameters in GraphPad Prism 8.

[2] = target: T2, CAPN5-PC p.G267S (Homo sapiens, UniProt O15484, G267S); assay: In vitro CAPN5 activity assay with consensus FRET peptides; type: biochemical; details: 1.6 μM CAPN5-PC p.G267S, 10 mM Ca^2+
T2 construct: active recombinant CAPN5 protease core (CAPN5-PC)
T2 sequence (O15484 26-343 G267S limits assumed): T1 sequence (O15484 26-343 limits assumed) with G242S
Experimental: Consensus FRET peptides were synthesized based on the highest scoring amino acids at each position of the PSSM (Peptides P4′A, P4′P, P2R, and P3GP1′ V) and were tested in our in vitro CAPN5 activity assay (FIG. 9B). These substrates were hydrolyzed by 1.6 μM CAPN5-PC p.G267S in the presence of 10 mM Ca^2+. […] The catalytic efficiency (kcat/Km) of this peptide was higher than the observed kcat/Km for our previously determined PR1476 peptide (11 vs. 7 M^−1s^−1; FIG. 9D).

[3] = target: CAPN5-R243L (Homo sapiens, UniProt O15484, R243L); assay: FRET-based CAPN5 inhibition assay, R243L mutant protease; type: biochemical
Experimental: (§1) We have optimized the CAPN5 assay and developed a high throughput CAPN5 inhibition assay which utilizes 384-well plates and uses less than 50 nM protease for each experimental condition. Calpain proteolytic activity was measured by hydrolysis of DABCYL-TPLKSPPPSPR (SEQ ID NO:3)-EDANS (Calpain Substrate III; Calbiochem). Briefly, 50 nM of purified CAPN5-G267S protease core domain was added to a reaction buffer containing 50 mM imidazole (pH 7.0), 200 mM NaCl, 20 mM CaCl2, 1 mM EDTA, 8 mM Li-acetate, 0.19 mM Facade®-EPC, 1 mM TCEP, 0.8% (v/v) glycerol, 4% (v/v) 1,3-butanediol. 8 μL of protease was added to each well of the 384-well plates. Varying concentrations of […] (final concentration of 0.1 μM to 100 μM; 4 μL in each well) were added and the reaction was incubated at 37° C. for 30 minutes. After incubation, 8 μL of Calpain Substrate III was added to each well (final concentration of 40 μM; total reaction volume was 20 μL) and EDANS signal was measured on a fluorimetric plate reader (Tecan Spark, Mannedorf Switzerland). All experiments were performed in triplicate. Reaction rates were fit to the Hill equation to determine the IC50 values in GraphPad Prism 8. This assay condition is compatible with CAPN1 and CAPN5 wild-type. We have chosen CAPN5-G267S for initial inhibitor screening, since it has higher activity than CAPN5 wild-type and the mutation is located at the G2-loop which is away from the active site that is likely to have identical specificity to CAPN5 wild-type specificity.
(§2) We have identified the PDGFB protein as a substrate. We discovered a likely proteolytic site for CAPN5 on PDGFB, and sought to use this information to inhibit proteolysis assuming the alteration of a robust endogenous substrate of CAPN5 would create an opportunity for more specific inhibition of CAPN5. We generated two artificial peptides by methylating only P1-Lysine (1-Methylated; FIG. 7A) or both P1-Lysine and P1′-Lysine (2-Methylated; FIG. 7B) expecting the methylation would make the PDGFB peptide motif resistant to CAPN5 proteolysis. We tested their inhibitory potential against CAPN5-G267S using our high throughput FRET-based CAPN5 inhibition assay. […] We further tested them with the CAPN5 wild-type and CAPN5-R243L mutant proteases. Both methylated PDGFB peptides inhibited CAPN5-R243L activity at the nanomolar IC50 (FIG. 7E).

[4] = target: CAPN5 wild-type (Homo sapiens, UniProt O15484); assay: FRET-based CAPN5 inhibition assay, wild-type protease; type: biochemical; details: for IC50: CAPN5 WT; for inhibition of wildtype CAPN5: CAPN5 wild-type
Experimental: as §1, §2

[5] = target: Human CAPN5-PC (Homo sapiens, UniProt O15484); assay: Human CAPN5-PC | Ki (µM)
Experimental: Table printed on a drawing sheet, FIG. 1C
Head of the field: Human CAPN5-PC | Ki (µM)
The patent's description of the figure: FIGS. 1A-1C show kinetic analysis of human CAPN5 and rat CAPN1 with the peptide substrates, RQNRGGGCINH (SEQ ID NO:1, FIG. 1A) and PLFAER (SEQ ID NO:2, FIG. 1B).
FIGS. 1A-1B show kinetic analysis of human CAPN5 and rat CAPN1 with the peptide substrates, RQNRGGGCINH (SEQ ID NO:1, FIG. 1A) and PLFAER (SEQ ID NO:2, FIG. 1B) using this protocol. […] A 10 mM PR1476 master stock was prepared in 100% DMSO. 3.69 mM PR1478 master stock was prepared in 50% DMSO/50% activity buffer.
First copying reader's note: Enzyme kinetic parameters of peptide substrates with calpain protease cores; the ± error stands inside the cells.
Where the first naming reader finds the target: head: Human CAPN5-PC

CAPN5 wild-type, sequence (O15484 whole entry): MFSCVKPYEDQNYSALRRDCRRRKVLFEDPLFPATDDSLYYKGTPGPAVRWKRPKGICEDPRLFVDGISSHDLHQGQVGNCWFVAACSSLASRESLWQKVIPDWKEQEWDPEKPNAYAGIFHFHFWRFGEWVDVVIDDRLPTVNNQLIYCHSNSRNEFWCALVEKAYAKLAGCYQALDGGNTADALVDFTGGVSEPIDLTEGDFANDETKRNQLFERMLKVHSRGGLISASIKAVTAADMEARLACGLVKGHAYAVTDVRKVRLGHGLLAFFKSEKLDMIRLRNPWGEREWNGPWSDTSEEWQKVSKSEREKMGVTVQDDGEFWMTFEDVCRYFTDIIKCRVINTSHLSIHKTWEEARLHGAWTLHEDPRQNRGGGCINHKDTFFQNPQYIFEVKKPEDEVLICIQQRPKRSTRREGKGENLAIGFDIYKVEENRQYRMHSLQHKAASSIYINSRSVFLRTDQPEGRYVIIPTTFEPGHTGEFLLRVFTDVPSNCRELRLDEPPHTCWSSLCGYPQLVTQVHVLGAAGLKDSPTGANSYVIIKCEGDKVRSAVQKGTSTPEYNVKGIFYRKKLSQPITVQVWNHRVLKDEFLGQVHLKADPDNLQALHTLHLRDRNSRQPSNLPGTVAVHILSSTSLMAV
CAPN5-R243L, sequence (O15484 whole entry R243L, the tested form may be a part): as the sequence (O15484 whole entry) above, with R243L counted along it

Compound: RQNRGGGCINH (N-terminal Dabcyl, EDANS on glutamate, C-terminal cap; calpain-5 peptide substrate) [PR1476]
- activity as substrate with CAPN5 ([1]; CAPN5 0, 0.16, 0.49, 1.6 μm, peptide 0 μM to 160 μM): displays activity in a CAPN5 dose-dependent manner
- substrate quality / sensitivity to CAPN5-PC activity ([1]; comparison between substrates): more sensitive than other generic calpain substrates

- hydrolysis by CAPN5-PC p.G267S [2]: hydrolyzed
Compound: EVKALEEP (also: FRET labels, places not given here) [P4′P, consensus FRET peptide substrate of calpain-5]

- hydrolysis by CAPN5-PC p.G267S [2]: hydrolyzed
Compound: EGKAVLEA (also: FRET labels, places not given here) [P3GP1′V, consensus FRET peptide substrate of calpain-5]

- hydrolysis by CAPN5-PC p.G267S [2]: hydrolyzed
Compound: EVKALEEA (also: FRET labels, places not given here) [P4′A, consensus FRET peptide substrate of calpain-5]

Compound: EVRALEEA (also: FRET labels, places not given here) [P2R, consensus FRET peptide substrate of calpain-5]
- hydrolysis by CAPN5-PC p.G267S [2]: hydrolyzed
- substrate turnover (kcat), preference [2]: preferred by CAPN5-PC

Compound: CCCC[C@@H](C=O)NC(=O)[C@H](CC(C)C)NC(=O)OCc1ccccc1 [Calpeptin]
- inhibition of CAPN5-R243L (mutant CAPN5) [3]: did not show any inhibition
- inhibition of CAPN5-R243L (mutant CAPN5) ([3]; listed as calpeptin): not the mutant CAPN5
- IC50 [4]: nanomolar
- inhibition of wildtype CAPN5 [4]: inhibit the wildtype

Compound: CC(=O)N[C@@H](CC(C)C)C(=O)N[C@@H](CC(C)C)C(=O)N[C@H](C=O)CCCNC(=N)N [Leupeptin]
- inhibition of CAPN5-R243L (mutant CAPN5) [3]: did not show any inhibition
- inhibition of CAPN5-R243L (mutant CAPN5) ([3]; listed as leupeptin): not the mutant CAPN5
- IC50 [4]: nanomolar
- inhibition of wildtype CAPN5 [4]: inhibit the wildtype

- Ki [5]: 43 ± 14 µM
Compound: RQNRGGGCINH (not fully specified (N-terminus)) [PR1476]
